Measured values reported in PMC6158044 (Molecular microbiology, 2018).

B1: 19-bp dsDNA (dsDNA)
DNA 1: GGGGGCGGGGCGGGCGGCG
DNA 2: CGCCGCCCGCCCCGCCCCC

Key:
[1] = biological target: PrgB188-1233 (Enterococcus faecalis, UniProt Q04112); experiment: isothermal titration calorimetry; type: binding
[2] = biological target: PrgB246-558 (Enterococcus faecalis, UniProt Q04112); experiment: isothermal titration calorimetry; type: binding
[3] = biological target: PrgB188-1233 monomer (Enterococcus faecalis (plasmid pCF10), UniProt Q04112 188-1233); experiment: ITC
[4] = biological target: PrgB188-1233 dimer (Enterococcus faecalis (plasmid pCF10), UniProt Q04112 188-1233); experiment: ITC
[5] = biological target: PrgB246-558 adhesin domain (Enterococcus faecalis (plasmid pCF10), UniProt Q04112 246-558); experiment: ITC

Molecule	Kd [1]	Kd [2]	Kd [3]	Kd [4]	Kd [5]
O=P(O)(O)OCC(O)CO (centres unmarked) [glycerol phosphate]	309 ± 55.3 µM	276 ± 71.2 µM			
B1			364 ± 73.8 µM	164 ± 42.4 µM	46.2 ± 14.5 µM
